Assay results taken from US20190031781A1.

Tests used:
[1] = target: carboxymethyl lysine conjugated to keyhole limpet hemocyanin (CML-KLH); test: direct binding ELISA, CML-KLH coat 1 ug/mL, antibody at 0.62 ug/mL
[2] = target: carboxymethyl lysine conjugated to keyhole limpet hemocyanin (CML-KLH); test: direct binding ELISA, CML-KLH coat 1 ug/mL, antibody at 50 ug/mL
[3] = target: carboxymethyl lysine conjugated to keyhole limpet hemocyanin (CML-KLH); test: direct binding ELISA, CML-KLH coat 1 ug/mL, antibody at 0.21 ug/mL
[4] = target: carboxymethyl lysine conjugated to keyhole limpet hemocyanin (CML-KLH); test: direct binding ELISA, CML-KLH coat 1 ug/mL, antibody at 16.67 ug/mL
[5] = target: carboxymethyl lysine conjugated to keyhole limpet hemocyanin (CML-KLH); test: direct binding ELISA, CML-KLH coat 1 ug/mL, antibody at 0.07 ug/mL
[6] = target: carboxymethyl lysine conjugated to keyhole limpet hemocyanin (CML-KLH); test: direct binding ELISA, CML-KLH coat 1 ug/mL, antibody at 5.56 ug/mL
[7] = target: carboxymethyl lysine conjugated to keyhole limpet hemocyanin (CML-KLH); test: direct binding ELISA, CML-KLH coat 1 ug/mL, antibody at 1.85 ug/mL

OD450 [1]: 0.083 | OD450 [2]: 0.462 | OD450 [3]: 0.075 | OD450 [4]: 0.312 | OD450 [5]: 0.086 | OD450 [6]: 0.165 | OD450 [7]: 0.092
Substance: carboxymethyl lysine MAb (Clone 318003), R&D Systems, catalog no. MAB3247 (antibody)
